Legend:
Details in all cases: protein: recombinant; tags: AGH N-terminal after intein cleavage
[1] = target: T1, Cyp33 RRM (human, UniProt Q9UNP9 1-114); test: NMR titration; weak, fast exchange; NMR titrations: 20 mM KHPO4 pH 7, 40 mM KCl, 1 mM DTT, 289.15 K as printed (table S2 says 298.15 K for Kd); structures of complexes: 40 mM KCl, 20 mM KH2PO4 pH
[2] = target: Cyp33 RRMΔα (human, UniProt Q9UNP9 1-90); test: NMR structure and titration; single register, larger shifts than with a3; NMR titrations: 20 mM KHPO4 pH 7, 40 mM KCl, 1 mM DTT, 289.15 K as printed (table S2 says 298.15 K for Kd); structures of complexes: 40 mM KCl, 20 mM KH2PO4 pH
Cyp33 RRMΔα, sequence (Q9UNP9 1-90, stated change not applied): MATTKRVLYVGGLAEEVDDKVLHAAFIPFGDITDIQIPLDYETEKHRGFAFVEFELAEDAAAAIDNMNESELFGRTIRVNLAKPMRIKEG

[3] = target: T1, Cyp33 RRM; test: NMR titration; NMR titrations: 20 mM KHPO4 pH 7, 40 mM KCl, 1 mM DTT, 289.15 K as printed (table S2 says 298.15 K for Kd); structures of complexes: 40 mM KCl, 20 mM KH2PO4 pH
[4] = target: Cyp33-RK (RRM) (human, UniProt Q9UNP9 1-114, R86A;K88A); test: as above
Cyp33-RK (RRM), sequence (Q9UNP9 1-114 R86A/K88A): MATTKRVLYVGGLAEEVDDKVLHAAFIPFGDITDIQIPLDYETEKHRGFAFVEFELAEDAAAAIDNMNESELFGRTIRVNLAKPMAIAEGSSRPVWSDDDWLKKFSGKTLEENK

[5] = target: Cyp33-K (RRM) (human, UniProt Q9UNP9 1-114, K83A); test: as above
Cyp33-K (RRM), sequence (Q9UNP9 1-114 K83A): as the sequence (Q9UNP9 1-114 R86A/K88A) above, with K83A, A86R, A88K counted along it

[6] = target: T1, Cyp33 RRM; test: NMR structure and titration; low affinity, multiple registers; NMR titrations: 20 mM KHPO4 pH 7, 40 mM KCl, 1 mM DTT, 289.15 K as printed (table S2 says 298.15 K for Kd); structures of complexes: 40 mM KCl, 20 mM KH2PO4 pH

T1 sequence (Q9UNP9 1-114): as the sequence (Q9UNP9 1-114 R86A/K88A) above, with A86R, A88K counted along it

B1: UAAUGUCG RNA (ssRNA)
RNA: UAAUGUCG
[1]
  binding result: binds
[2]
  binding result: binds

B2: UAAUGU RNA (ssRNA)
RNA: UAAUGU
[3]
  Kd: ~300 µM
[4]
  Kd: ~2 mM
[5]
  Kd: ~1.8 mM

B3: AAUAAA RNA (poly-A signal) (ssRNA)
RNA: AAUAAA
[6]
  binding result: binds

From article PMC10115415, “RNA binding induces an allosteric switch in Cyp33 to repress MLL1-mediated transcription”
